Data as given in US7078385B2, “Methods of inhibiting angiogenesis with fragments and homologs of troponin subunit I” (Boston Life Sciences, Inc., priority 1996, dated 2006).

Tests used:
[1] = tested on: bFGF-induced corneal angiogenesis; test: Mouse corneal pocket assay; type: in vivo, C57BL/6 mice; settings: 50 mg/kg subcutaneous every 12 hours, sixth day of treatment
Description: Briefly, pellets composed of bFGF (40 ng/ml), sucrose octasulfate and Hydron were implanted into corneal micropockets of six C57BL/6 mice as previously described (U.S. Pat. No. 5,837,680 to Moses et al.). Troponin I (50 mg/kg) was administered systemically every 12 hours by subcutaneous injection. On the sixth day of treatment, corneal angiogenesis was evaluated using slit lamp microscopy and photographed.

[2] = tested on: capillary EC from bovine adrenal cortex, bFGF-stimulated; test: bFGF-stimulated capillary EC proliferation (Example 8); type: cell-based; settings: bFGF as mitogen
Description: (§1) Capillary EC, isolated from bovine adrenal cortex (Folkman, et al., 1979, Proc. Natl. Acad. Sci. USA 76, 5217–5221) were obtained from Children's Hospital (Boston, Mass.). […] Cells were maintained in culture in DME (Dulbecco's Modified Eagle's Medium, Gibco Laboratories) with 10% calf serum (Hyclone) (DME/10) supplemented with 3 ng/ml bFGF or Vascular Endothelial Growth Factor (VEGF) in preparation for these assays.
(§2) Briefly, capillary EC (2,000 cells per well) were plated on gelatinized 96-Well culture plates in DMEM supplemented with 5% (v/v) calf serum and incubated for 24 hours. On day 2, cells were treated with bFGF (Scios Nova; 1 ng/ml) and challenged with the test fractions and/or with purified TnI. For experiments in which VEGF was used as the mitogen, 800 cells per well were plated and allowed to incubate for 3 hours before VEGF (Biomedical Technologies Incorporated; 30 ng/ml) and TnI was added. Control wells contained cells alone and cells stimulated with bFGF or VEGF. On day 5, growth medium was removed from the plates; cells were lysed in buffer containing the detergent Triton x-100 and the phosphatase substrate p-nitrophenyl phosphate. […] Color development was determined using a rapid multiwell plate reader (Dynatech MR 5000) (Moses, et al., 1990, Science 2488, 1408–1410; Moses, et al., 1990, J. Cell. Biol. 119, 474–481; Connolly, et al., 1986, Anal. Biochem. 152, 136–140).

BALB/c mouse 3T3 cells = test: Cell specificity: tritiated thymidine incorporation in quiescent 3T3 cells; type: cell-based; settings: doses over 5× higher than the IC50 for capillary EC
[3] = tested on: capillary EC from bovine adrenal cortex, VEGF-stimulated; settings: read-out: IC50, capillary EC proliferation; VEGF as mitogen
Description: as §1, §2

[4] = tested on: bovine aortic smooth muscle cells (SMC); test: Cell specificity: PDGF-BB-stimulated smooth muscle cell proliferation, electronic cell counting; type: cell-based; settings: doses over 5× higher than the IC50 for capillary EC
Description: BALB/c mouse 3T3 cells were maintained in DME/10, L-glutamine(292 μg/ml) as previously described (Klagsbrun, et al., 1977, Exp. Cell Res. 105, 99–108). Bovine aortic smooth muscle cells (SMC), isolated by explant from the medial layer of bovine aortas, were obtained from Children's Hospital (Boston, Mass.). These cells were cultured in DME/10 on uncoated tissue culture plastic as previously described (D'Amore and Smith, 1993, Growth Factors 8, 61–75).
To determine whether the proliferation of bovine aortic SMC and Balb c/3T3 cells was inhibited by TnI, the following assays were conducted. SMC were plated into multiwell dishes (2.1 cm^2/well) at a density of 10,000 cells/well. After allowing the cells to attach overnight, fresh media was applied containing either 3 ng/ml PDGF-BB alone or in combination with increasing concentrations of purified TnI. Following incubation for 72 hrs at 37° C. in 10% CO2, the cells were rinsed in PBS, detached by trypsinization and counted electronically.

[5] = tested on: embryonic neovascularization of the chick chorioallantoic membrane; test: Chick chorioallantoic membrane (CAM) assay; type: in vivo; settings: 48 h
Description: All procedures were carried out in a laminar flow hood under sterile conditions. The eggs were stored in a Favorite Egg Incubator (Leahy) at 37° C. and 65% relative humidity. On day 3 of development, fertilized White Leghorn eggs (SPAFAS) were cracked and the embryos removed from their shells and placed in plastic petri dishes. On day 6, test substances including native rabbit TnI (Greaser and Gergely, 1971, J. Biol. Chem. 246, 4226–4233) and recombinant human TnI and appropriate buffer controls were mixed in methylcellulose, disks and applied to the surfaces of the growing CAMs above the dense subectodermal plexus.

[6] = tested on: capillary EC DNA synthesis; test: Tritiated thymidine incorporation, capillary EC DNA synthesis; type: cell-based, bovine; settings: tritiated thymidine assay
Description: On day one, 5,000 bovine capillary endothelial cells in DMEM/10% CS/1% GPS are plated onto each well of a 96-well pregelatinized tissue culture plate. On day two, the cell media is changed to DMEM, 2% CS, 1% GPS, 0.5% BSA (complete medium), supplemented with 10 μl of 1 mg/ml “cold” thymidine per 50 ml of medium. On day three, test samples in complete medium are added in duplicate. Additionally, […] (bFGF) is added to each well except for the appropriate controls, to a final concentration of 0.2 ng/well. On day four, 5 μl of 1:13 diluted ^3H-Thymidine stock is added to each well and the plate is incubated for 5–6 hours. Following incubation, the medium is aspirated, and the remainder is rinsed once with PBS, then twice for 5 minutes each with methanol followed by two rinses each for 10 minutes with 5% TCA. The cells are then rinsed with water three times, dried to the plate, and 100 μl of 0.3 N NaOH is added to each well. The contents of the well are then transferred to the scintillation counter vials and 3 mls of Ecolume added to each vial. Samples are then counted on the scintillation counter.

[7] = tested on: B16-BL6 melanoma lung metastases; test: B16-BL6 melanoma lung metastasis model; type: in vivo, C57BL/6 mice
Description: Murine melanoma B16-BL6 were cultured in RPMI 1640 (Gibco) supplemented with 10% (v/v) fetal calf serum (Hyclone), L-glutamine and NaHCO3. Cells were washed with EBSS (Gibco) and trypsinized for 3 to 5 mm with 0.25% TRL/0.2% EDTA to which culture buffer was added for washing. This preparation was then centrifuged for 10 mm at 1000 rpm, the cell pellet resuspended in fresh culture media, cell number determined using a coulter counter and cell viability determined with trypan blue (100% viability). The cell suspension was adjusted to […] for implantation. B16-BL6 cells (5×10^5/0.2 ml) were injected into the tail veins of C57BL/6 mice (approximately 6–7 weeks old). One day following tumor cell inoculation, mice were treated with rTnI systemically, twice per week, with a dose of either 1 mg/kg (n=10) or 20 mg/kg (n=10) or vehicle (150 mM NaCl, 20 mM citrate, pH3) over, a 28 day period. On day 30, animals were sacrificed, the number of lung surface metastases counted and the lungs weighed.

B1: rTnI: recombinant human fast-twitch skeletal muscle troponin I expressed in E. coli, about 21 kDa (SEQ ID NO:17) (protein, listed as Homo sapiens)
chain: MGDEEKRNRAITARRQHLKSVMLQIAATELEKEESRREAEKQNYLAEHCPPLHIPGSMSEVQELCKQLHAKIDAAEEEKYDMEVRVQKTSKELEDMNQKLFDLRGKFKRPPLRRVRMSADAMLKALLGSKHKVCMDLRANLKQVKKEDTEKERDLRDVGDWRKNIEEKSGMEGRKKMFESES
In the case of B1, the “Inhibition of bFGF-induced corneal angiogenesis (in words)” value [1] is reported as “significantly inhibited”, the IC50 [2] is reported as roughly 65 nM and the “Suppression of growth of Balb/c 3T3 cells” value (BALB/c mouse 3T3 cells) is reported as “did not suppress the growth”. The IC50 [3] was roughly 1.5 nM, the “Suppression of growth of bovine aortic smooth muscle cells” value [4] was “did not suppress the growth” and the “Eggs with avascular zone (inhibition of embryonic neovascularization)” value ([5]; 130 picomoles) was 66%. For the same molecule, the “Eggs with avascular zone (inhibition of embryonic neovascularization)” value ([5]; approximately 380 picomoles) was 100%, the IC50 [6] was roughly 240 nM and the “Inhibition of lung metastases” value ([7]; 1 mg/kg systemically twice weekly, 28 days, day 30) was 52%. For the same molecule, the “Inhibition of lung metastases” value ([7]; 20 mg/kg systemically twice weekly, 28 days, day 30) was 64%, the “Number of lung surface metastases (mean, SEM)” value ([7]; 20 mg/kg twice weekly, day 30) was 25.0+/−7.5 and the “Toxicity (weight or appetite loss)” value ([7]; 1 or 20 mg/kg twice weekly, 28 days) was “no observed toxicity”. For the same molecule, the “Lung weights, treated versus control groups” value ([7]; 1 or 20 mg/kg twice weekly, day 30) was “comparable”.
